Target: IL-12Rβ1/IL-12Rβ2 receptor complex (human, UniProt P42701)
Assay: cell-based or functional assay

B1: P36693671 (other)
chain 1: QVQLVQSGAEVKKPGASVKVSCKASGYTFTMNIIHWVRQAPGQGLEWMGWIHPGSGAIKYAQKLQGRVTMTTDTSTSTAYMELRSLRSDDTAVYYCARHGGTGRGAMDYWGQGTLVTVSSASTKGPSVFPLAPSSKSTSGGTAALGCLVKDYFPEPVTVSWNSGALTSGVHTFPAVLQSSGLYSLSSVVTVPSSSLGTQTYICNVNHKPSNTKVDKKVEPKSCDKGGGGSSGRSDNRGGGGSIWELKKDVYVVELDWYPDAPGEMVVLTCDTPEEDGITWTLDQSSEVLGSGKTLTIQVKEFGDAGQYTCHKGGEVLSHSLLLLHKKEDGIWSTDILKDQKEPKNKTFLRCEAKNYSGRFTCWWLTTISTDLTFSVKSSRGSSDPQGVTCGAATLSAERVRGDNKEYEYSVECQEDSAAPAAEESLPIEVMVDAVHKLKYENYTSSFFIRDIIKPDPPKNLQLKPLKNSRQVEVSWEYPDTWSTPHSYFSLTFSVQVQGQDQDEKKDRVFTDKTSATVICRKNASISVRAQDRYYSSSWSEWASVPCS
chain 2: EIVLTQSPGTLSLSPGERATLSCRASQSVSTSAYSYMHWYQQKPGQAPRLLIYLASNLESGIPDRFSGSGSGTDFTLTISRLEPEDFAVYYCQQSRELPYTFGQGTKLEIKRTVAAPSVFIFPPSDEQLKSGTASVVCLLNNFYPREAKVQWKVDNALQSGNSQESVTEQDSKDSTYSLSSTLTLSKADYEKHKVYACEVTHQGLSSPVTKSFNRGECGGGGSPLGLAGRNLPVATPDPGMFPCLHHSQNLLRAVSNMLQKARQTLEFYPCTSEEIDHEDITKDKTSTVEACLPLELTKNESSLNSRETSFITNGSCLASRKTSFMMALCLSSIYEDLKMYQVEFKTMNAKLLMDPKRQIFLDQNMLAVIDELMQALNFNSETVPQKSSLEEPDFYKTKIKLCILLHAFRIRAVTIDRVMSYLNAS
IFN-γ secretion by NK92MI cells (ELISA, 48 hrs): ~70 fold lower

From patent publication US20230399371A1, “IL-12 COMPOSITIONS AND METHODS OF USE THEREOF” (published 2023)
